Assay [1] concerns the target endogenous SNAP25 (rat brain extract; PC12 cells) (rat, UniProt P60881 1-206). Nature of the assay: co-immunoprecipitation with anti-SNAP25 from Triton X-100 extract of rat brain. The method, then:
FIG. 4A illustrates that TI-VAMP forms a complex with SNAP25 in Triton X100 extract of rat brain. Immunoprecipitation with anti-SNAP25 antibodies was performed from Triton X100 soluble extract of rat brain as described in the Materials and Methods section of example 1 and immunoprecipitated proteins were detected by western blot analysis with the indicated antibodies (synaptobrevin 2, Sb2: cellubrevin, Cb: U, unbound, B: bound to anti-SNAP25 immunobeads). The bound fraction corresponded to a 65-fold enrichment compared to unbound. The SNAP25 TI-VAMP complex seemed more abundant than the SNAP25 synaptobrevin 2 one but this may only reflect a lower expression level of TI-VAMP compared to synaptobrevin 2 in the adult brain.
Immunoprecipitation: Immunoprecipitation from rat brain was performed using a Triton X-100 soluble membrane fraction prepared as follows: two adult rat brains were homogenized, with a glass teflon homogenizer (9 strokes at 900 rpm) in 25 ml of 0.32M sucrose containing a protease inhibitor cocktail. All the steps were carried out at 4° C. After 10 min centrifugation at 800 g the supernatant was centrifuged at 184000 g for 1 hour, obtaining a cytosolic and a membrane fraction in the supernatant and the pellet, respectively. […]

The next assay addresses T1, 6xhis-tagged SNAP25A (UniProt P60881-2 1-206).
T1 construct: also called 6xhisSNAP25; 6xhis-SNAP25; not shown: 6xhis tag
The experiment in a line: overlay assay. The method, then:
The binding of GST, GST-Cyt-TIVAMP, GST-ter-TIVAMP, or GST-CC-TIVAMP was measured by overlay over immobilized 6xhis-SNAP25 (indicated by the arrow). GST-CC-TIVAMP bound efficiently to immobilized 6xhis-SNAP25. Little binding of GST-Cyt-TIVAMP and none of GST and GST-Nter-TIVAMP were observed.
Overlay assay: The corresponding GST fusion proteins and GST alone were produced and purified as previously described, 6xhis-tagged SNAP25A (6xhisSNAP25, bacterial strain is available from G. Schiavo, ICRF, London, UK) was purified. 6xhisSNAP25 was run on SDS-PAGE and western blotted onto Immobilon-P membrane (Millipore, Bedford, Mass.). The amount of 6xhisSNAP25 corresponds to 1.25 μg/mm of membrane, 4 mm strips of the membrane were cut and incubated in 150 mM NaCl, 5% non fat dry milk. 50 mM phosphate pH7.5 buffer for 1 hour at room temperature. The strips were then incubated with 10 nM the GST-fusion proteins overnight at 4° C. in buffer B (3% BSA, 0.1%, Tween20 20 mM Tris pH: 7.5) containing 1 mM DTT. The strips were rinsed three times in buffer B at room temperature, incubated with anti-GST antibodies in butfer B for 1 hour, rinsed in buffer B three times and incubated with alkaline phosphatase-coupled sheep anti-mouse antibodies. The detection as carried out simultaneously for all the strips, for the same time, using a kit from Promega (Madison, Wis.).

The values below come from US20030153520A1 (published 2003).

T1 sequence (P60881 other isoform, or with tags, fused parts or gaps limits assumed): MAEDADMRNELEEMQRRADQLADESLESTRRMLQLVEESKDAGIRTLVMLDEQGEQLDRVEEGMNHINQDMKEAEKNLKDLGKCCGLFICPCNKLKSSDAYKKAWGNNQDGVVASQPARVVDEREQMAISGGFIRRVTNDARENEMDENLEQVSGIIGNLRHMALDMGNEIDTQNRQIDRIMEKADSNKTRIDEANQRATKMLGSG
Chain of endogenous SNAP25 (rat brain extract; PC12 cells) (P60881 whole entry): as the sequence (P60881 other isoform, or with tags, fused parts or gaps limits assumed) above, with D58E, V60I, N65D, H66Q, Q69K, K79T, C84F, F88C, I89V counted along it

B1: endogenous cellubrevin (rat brain) (other, UniProt P63025 1-103, looked up)
chain: MSTGVPSGSSAATGSNRRLQQTQNQVDEVVDIMRVNVDKVLERDQKLSELDDRADALQAGASQFETSAAKLKRKYWWKNCKMWAIGISVLVIIVIIIIVWCVS
notes: also called Cb
Regarding B1, in assay [1], the binding result was “no binding”.

B2: GST-Cyt-TIVAMP (other)
chain: MAILFAVVARGTTILAKHAWCGGNFLEVTEQILAKIPSENNKLTYSHGNYLFHYICQDRIVYLCITDDDFERSRAFNFLNEIKKRFQTTYGSRAQTALPYAMNSEFSSVLAAQLKHHSENKGLDKVMETQAQVDELKGIMVRNIDLVAQRGERLELLIDKTENLVDSSVTFKTTSRNLARAMCMKNLK
notes: also called full cytoplasmic domain of TI-VAMP fused to GST; not shown: glutathione S-transferase (GST) tag encoded by the pGEX4T vector (Pharmacia)
B2: the binding result with 6xhis-tagged SNAP25A is recorded as “binds”.
